From patent US20040091878, “Zinc finger domain recognition code and uses thereof” (published 2004)

Legend:
[1] = biological target: AL1 ZFP (Clone 1, 3-finger, Sp1C domain 2 framework) (artificial); test: EMSA; half-maximal binding also 18 nM; 10 mM Tris pH 7.5, 100 mM NaCl, 1 mM MgCl2, 0.1 mM ZnCl2, poly(dA-dT)2, on ice; conditions: tags: expressed from pET-21a in E. coli BL21(DE3)pLysS, Bio-Rex 70 purified; label: 5'-32P
[2] = biological target: Zif268 (UniProt P08046 P08046:333-421); test: EMSA; half-maximal binding; positive control; 0.1 mM ZnCl2

AL1 ZFP (Clone 1, 3-finger, Sp1C domain 2 framework) (artificial), sequence (chain, as listed by the source): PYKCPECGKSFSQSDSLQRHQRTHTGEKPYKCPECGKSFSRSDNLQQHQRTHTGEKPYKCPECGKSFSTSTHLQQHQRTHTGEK

| Binder | Kd [1] [nM] | apparent K (half saturation) [2] [nM] |
| --- | --- | --- |
| AL1 target probe (dsDNA) DNA 1: TATATATAAGTAAGGTAGTATATATA DNA 2: TATATATACTACCTTACTTATATATA | 18 |  |
| Zif268 target probe (dsDNA) DNA 1: TATATATAGCGTGGGCGTTATATATA DNA 2: TATATATAACGCCCACGCTATATATA |  | 4 |
